# From the RNAGym collection of RNA variant scans (doi:10.1093/nar/gkz1192)
# B1: CPEB3 Ribozyme (parent)
# chain: UAACAGGGGGCCACAGCAGAAGCGUUCACGUCGCAGCCCCUGUCAGAUUCUGGUGAAUCUGCGAAUUCUGCUGUAUAUCUC
# Variants of: B1
# Assay: self-cleavage, relative activity (ratio to wild type); higher = more cleavage; in vitro, sequencing
# Procedure, shortened: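 Relative activity was defined as the cleaved/total read fraction for a variant divided by the same fraction for the unmutated ribozyme. CPEB3 self-cleaving ribozyme libraries were made by rounds of error-prone PCR, barcoded, and transcribed in vitro with T7 RNA polymerase for 5 hours at 37°C, and cleavage ran through transcription plus a 15 min DNase I step before EDTA. Illumina sequencing of template-switched reverse transcripts gave the reads, and DNA sequencing mapped the barcodes. Averages come from three batches, using variants with at least 5 reads.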
row,Variant,self-cleavage
1,G6U U76A,0.32
2,G6U U76C,0.15
3,A5U U67C,0.29
4,A5U U67A,0.63
5,A5U U67G,0.54
6,G6A C23U,0.12
7,G6A C23A,0.1
8,G6A C23G,0.35
9,G6A C37U,0.2
10,G6C U54C,0.52
11,G6C A65G,0.46
12,G6C A45U,0.32
13,A5U U66A,0.46
14,A5U U66C,0.45
15,A5U U66G,0.93
16,G6A A21U,0.31
17,G6A A21G,0.49
18,G6U U25C,0.37
19,A5U U49A,0.44
20,A5U U49C,0.55
21,G6A U66C,0.29
22,G6U U31A,0.17
23,G6U U31C,0.22
24,G6A G55U,0.4

row,Variant,self-cleavage
1,G6U U66A,0.13
2,G6U U66C,0.2
3,G6A G63A,0.34
4,G7A A75G,0.3
5,G6A U43A,0.49
6,G6A U43C,0.19
7,G6A G9C,0.07
8,G6A G9A,0.25
9,G6A U67A,0.4
10,G6A U67C,0.32
11,G6A U78A,0.11
12,G6A U78C,0.24
13,G6C U58A,0.21
14,G7A A28G,0.16
15,G7A A28C,0.2
16,G6A U25C,0.27
17,G6A U25G,0.47
18,G7A C59A,0.04
19,G6U A13U,0.18
20,A5U G55U,1.15
21,G6A G46U,0.32
22,G6A G73U,0.89
23,G6C U31C,0.45
24,G6C U31A,0.16

row,Variant,self-cleavage
1,G6U U74G,0.4
2,G7A A65G,0.11
3,G7A C14A,0.31
4,G6A C59A,0.15
5,G6A A13G,0.35
6,G6A A13C,0.4
7,G6A A13U,0.28
8,A5U U74C,1.14
9,A5U U74A,1.24
10,G6A G19C,0.42
11,G6A G19A,0.26
12,G6A G19U,0.06
13,G6A A28U,0.4
14,G6A A28G,0.29
15,G6A A28C,0.15
16,G7A A57G,0.12
17,G6C U69C,0.21
18,G6A C14U,0.57
19,A5U C71U,0.79
20,A5U G33C,0.16
21,A5U G33A,0.27
22,G6U U41A,0.35
23,G6A G61A,0.34
24,A5U U80G,1.14

row,Variant,self-cleavage
1,A5U U80C,1.12
2,A5U U80A,1.32
3,G6C U41C,0.49
4,G6U U48A,0.16
5,G6U U48C,0.13
6,G6U U69C,0.22
7,A5U G61U,0.72
8,G6A A47G,0.46
9,G6A A47U,0.32
10,G7A,0.25
11,G6A U60C,0.27
12,G6A U60A,0.33
13,G6U G73A,0.57
14,G6U C29U,0.25
15,G6U U58C,0.16
16,A5U G52U,1.15
17,A5U G52A,1.1
18,A5U G36A,0.39
19,G6U G8A,0.23
20,A5U G10A,0.12
21,A5U G10C,0.5
22,A5U G19A,0.72
23,A5U U51A,0.96
24,A5U U51G,1.16

row,Variant,self-cleavage
1,A5U U51C,1.13
2,G6C C62U,0.2
3,A5U U31C,0.92
4,A5U U31A,0.5
5,G6U A20G,0.26
6,G6U A20U,0.34
7,G6U G9A,0.4
8,G7A A56U,0.52
9,G7A A56G,0.15
10,G6C A57G,0.5
11,G6C A20G,0.44
12,G6A U80C,0.45
13,G6A U80A,0.53
14,G7A C37A,0.11
15,A5U G16A,1.05
16,A5U G16U,0.66
17,A5U G6A,0.52
18,G6U G52A,0.47
19,G6U G7A,0.33
20,G6A G16A,0.29
21,G6A A20U,0.07
22,G6A A20G,0.48
23,G6C A35U,0.3
24,G6C C38A,0.43

row,Variant,self-cleavage
1,A5U U43A,1.24
2,A5U U43C,0.76
3,G6C U51A,0.38
4,G6U A56U,0.22
5,G6U A56G,0.41
6,G6U A45U,0.19
7,G6U A45G,0.11
8,G7A C32U,0.09
9,A5U U41C,0.98
10,A5U U41A,0.33
11,G7A A18G,0.25
12,G6A C79A,0.38
13,G6A C79U,0.55
14,G6U U78A,0.79
15,G7A A20G,0.26
16,G7A A20C,0.27
17,G6A G36A,0.19
18,A5U U78A,1.15
19,A5U U78C,0.93
20,G6A C62U,0.25
21,G6A C62G,0.42
22,G6A C62A,0.16
23,G6C C27U,0.33
24,G6U A57G,0.43

row,Variant,self-cleavage
1,G6U G16C,0.19
2,G6A U48C,0.18
3,G6A U51C,0.49
4,G6A U51A,0.37
5,G6A U41A,0.26
6,G6A U41G,0.18
7,G6A U41C,0.31
8,G6A A15G,0.36
9,G6A A15C,0.42
10,G6A A15U,0.18
11,G6A A57G,0.34
12,G6A A57U,0.29
13,A5U U25A,0.26
14,A5U U25C,0.41
15,G6A G24U,0.23
16,G6A G24A,0.34
17,G6U C79A,0.46
18,G6U C71A,0.16
19,G6C U72A,0.18
20,G6A A18U,0.23
21,G6A A18G,0.31
22,G6A A18C,0.44
23,G6A C17U,0.22
24,G6A C17A,0.54

row,Variant,self-cleavage
1,G6A U58A,0.27
2,G6A U58C,0.14
3,G6A U58G,0.29
4,G6A U74C,0.54
5,A5U G8A,0.12
6,A5U G8C,0.1
7,G6A G33U,0.22
8,G6A G33A,0.29
9,G6U A18U,0.12
10,G6U A18C,0.14
11,G6A C39A,0.49
12,A5U U72G,0.94
13,A5U U72A,0.71
14,A5U U72C,1.14
15,G6A A45U,0.38
16,G6A A45G,0.14
17,A5U G22A,0.28
18,G6A C38U,0.3
19,G6A C38A,0.1
20,G7A C12U,0.07
21,G6U A64G,0.32
22,G6U A64U,0.07
23,G6U A65U,0.23
24,G7A A77U,0.26

row,Variant,self-cleavage
1,G6C U74C,0.67
2,G6U A35U,0.36
3,G6U A35G,0.41
4,A5U G7A,0.22
5,A5U G7U,0.35
6,A5U G7C,0.48
7,G6A A56G,0.28
8,G6A A56U,0.2
9,G7A C40U,0.3
10,G7A C40A,0.18
11,G6U C59U,0.09
12,G6U C12U,0.19
13,G6U U67C,0.11
14,G6U U67A,0.09
15,G6A A65U,0.22
16,G6A A65G,0.16
17,G6A C29U,0.08
18,G6A C29A,0.05
19,G7A A47G,0.09
20,G6A A35U,0.26
21,G6A A35C,0.3
22,G6A A35G,0.86
23,A5U G9U,0.34
24,A5U G9A,0.45

row,Variant,self-cleavage
1,G6A U72G,0.27
2,G6A U72C,0.4
3,G6A U72A,0.2
4,G7A A15G,0.09
5,G7A A15U,0.23
6,G6C U48C,0.47
7,G6U C32U,0.08
8,G6U U26A,0.13
9,G6U U26C,0.38
10,G6C G19A,0.48
11,G6C G19U,0.2
12,A5U C79U,1.24
13,G6A G30A,0.19
14,G6C U67C,0.3
15,A5U U69C,0.74
16,A5U U69A,0.81
17,G6A C81U,0.73
18,G7A A13G,0.3
19,G6U U51C,0.36
20,G6U U80C,0.09
21,G6U U80A,0.44
22,G6U A77U,0.16
23,G6U A47U,0.17
24,G6U A47G,0.36

row,Variant,self-cleavage
1,G7A A35U,0.19
2,G7A A35G,0.46
3,G6C G42A,0.31
4,G6A G42A,0.15
5,A5U G24A,0.4
6,A5U G24C,0.36
7,A5U G24U,0.43
8,G6U U72C,0.37
9,G6A U76G,0.14
10,G6A U76C,0.27
11,G6U C11A,0.16
12,G7A C29A,0.36
13,A5U U60C,0.58
14,A5U U60A,0.76
15,G6A U54C,0.52
16,G6A U54G,0.19
17,G6A U54A,0.27
18,G6A U31C,0.34
19,G6A U31A,0.21
20,G6C A21G,0.56
21,G6C A21U,0.39
22,G6U U49A,0.38
23,G6U U49C,0.22
24,A5U G63A,1.06

row,Variant,self-cleavage
1,A5U U54C,1.09
2,A5U U54A,1.1
3,A5U C81A,1.24
4,A5U C81U,1.17
5,A5U C81G,1.29
6,G6A C44U,0.46
7,G6U U43C,0.32
8,G7A A64U,0.18
9,G7A A64G,0.28
10,G6U A75G,0.09
11,G6U,0.35
12,G6A,0.4
13,G6C,0.36
14,G6U C23U,0.25
15,G6A A77G,0.45
16,G6A A77C,0.44
17,G6A A77U,0.34
18,G6A U26A,0.19
19,G6A U26C,0.2
20,G6U A15U,0.41
21,G6U A15C,0.19
22,G6U U60A,0.49
23,G6U U60C,0.24
24,G6A U69G,0.27

row,Variant,self-cleavage
1,G6A U69A,0.32
2,G6A U69C,0.15
3,G6A U49A,0.08
4,G6A U49C,0.15
5,A5U U26C,0.72
6,A5U U26A,1.05
7,G6A G7A,0.09
8,G6A G7U,0.07
9,G6U A21C,0.17
10,G6U A21G,0.29
11,A5U U76C,1.13
12,A5U U76A,1.12
13,G6A C12U,0.59
14,G6A C12A,0.39
15,G6A G10A,0.41
16,G6A G10C,0.23
17,G6U A28G,0.38
18,G6A C34U,0.15
19,G6C G53A,0.59
20,G6U G10A,0.34
21,G6C A18U,0.07
22,G6A G53A,0.34
23,G6A G53C,0.43
24,A5U G30C,0.4

row,Variant,self-cleavage
1,A5U G30U,0.26
2,A5U G30A,0.27
3,G7A A45U,0.16
4,G7A A45G,0.16
5,G6C C71A,0.21
6,G6A A75G,0.27
7,G6A A75U,0.51
8,A5U G46A,0.36
9,G7A C11G,0.07
10,G6A C32A,0.26
11,G6C U26A,0.47
12,G6A C40U,0.33
13,G7A A21G,0.33
14,A5U U48C,0.66
15,G6C U25A,0.5
16,G6A A64U,0.2
17,G6A A64G,0.27
18,A5U U58A,0.53
19,A5U U58C,0.61
20,A5U G53A,1.14
21,G6U C62G,0.25
22,G6C U78C,0.48
